Experimental findings from the supplement of paper PMC12042874 are described below.

± gives the uncertainty stated by the source.

A short description of this data set: amyloid nucleation score (Sup35N fusion, yeast selection) (log enrichment); library NNK3; higher = more nucleation; inactive = no reads after selection. Put shortly:
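Sup35N fusions to peptides of 20 random codons were expressed in psi-negative yeast, induced 24 hours with 100 μM copper sulfate, and grown 7 days at 30°C on medium lacking adenine and uracil. Input and output plasmid inserts were sequenced by Illumina. The nucleation score is the DiMSum log enrichment of output over input reads, centred on the mode score of non-aggregating sequences. Sequences with under 100 input reads were excluded.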
GSMSLIYYGLRRKVMGYVLS showed an amyloid nucleation score of 0.316 ± 0.7. The same measure for GSMTFNYTLEGLNYHNDTKE: “inactive”. Then GSMVVEFMYYHPTPTRGAWA, with 0.8 ± 0.17; and GSPFYIFRVINLYT, with 2.93 ± 0.049; and GSPQVSAAGQF, with “inactive”.

In the case of GSRDYCVVNSIESDNCFQGW, the amyloid nucleation score entry was “inactive”.

Consider GSRRWFEFFVPWLQLD, for which the amyloid nucleation score result is “inactive”. For the substance GSSGENFVNYSKVTKSDLLY, the amyloid nucleation score entry is “inactive”. Then GSSVVS, with “inactive”. The same measure for GSTCSDLLALYPWYVRIKEI: “inactive”; for GSVGFIIKGWWSTE: 0.621 ± 0.26; for GSWMCVMLRVFCSCSWLYCS: -0.018 ± 0.93.

In the case of GSWTVLQNRHQAERVVSVYR, the amyloid nucleation score entry was “inactive”. Then GSYFRATACPSLFCSFRVEW, with “inactive”; and GSYLQGMRCVADWDNGEQLR, with 1.97 ± 0.091.

Turning to GSYMYKKGLQF, the amyloid nucleation score result was “inactive”. Then GSYRLLY, with “inactive”; and GSYYWGGIGFTSEI, with 0.846 ± 0.14; and GTLISEVCIFQ, with “inactive”. The same measure for GTLWNSIFACVFQCSERSIM: “inactive”. Consider GTPYCICALSMHSTWDCN, for which the amyloid nucleation score came out at 1.64 ± 0.081. Then GTRLRVGILIPRWDSGTFGF, with “inactive”. Then GTYFSCVYGTKKL, with “inactive”. The same measure for GVFCSVINLIDATVVN: “inactive”; for GVFERR: “inactive”. With GVFRPMWVLARVDSQNLASL, the amyloid nucleation score entry was “inactive”. Then GVGATATTFWGVRWVRRSTN, with “inactive”; and GVGFQGYVTRGKNRLRDRAQ, with “inactive”; and GVGPVGRF, with “inactive”.

Consider GVISVFWMLWYLYPSLL, for which the amyloid nucleation score result was “inactive”. The same measure for GVLRLVISEHDLDETFVFMT: 0.189 ± 0.43; for GVMVPTALLISNPSRRFHWL: “inactive”; for GVRNGPKLILFYLRSWHEAY: “inactive”.

On to GVSLATSYKMLLGVIVLGME, for which the amyloid nucleation score was 0.697 ± 0.18. Then GVSSCFWSSFEQKFMKLSSV, with “inactive”. The same measure for GVSYSLCLLIGLNRIRMGMV: “inactive”; for GVTCKHRPAKYVQDRMNF: “inactive”; for GVWKEHVTRAAVVSWKEGVN: “inactive”.

On to GWHYMYSGYANYIGFSLPLY, for which the amyloid nucleation score result is “inactive”. The same measure for GWMNACT: 0.356 ± 0.34; for GWMYTCRDAHYLDGWRLVHD: “inactive”; for GWNSRM: “inactive”. Then GWRFMLFRAQLFIWMIICFC, with “inactive”; and GWSYRDLTMVGVNELFV, with “inactive”; and GWTLQWIVWI, with 0.081 ± 0.81. Then GWYLYIVTG, with “inactive”; and GYDGRGSHAL, with “inactive”; and GYECLIVFFMRLLSIPVVSD, with “inactive”. Take GYKATQLLSGGPYNLCVGGT: the amyloid nucleation score entry is “inactive”. With GYLWVLRLPGVSEFIEMDLQ, the amyloid nucleation score entry was “inactive”. The same measure for GYLYDFLPCP: -0.497 ± 0.7. The same measure for GYNFNEENINMLHQREFSLS: “inactive”; for GYNICWTPWYAVLDGVTKML: “inactive”; for GYNIMLYMLKYS: “inactive”. The same measure for GYNVVKLCFIIILFVVEESS: “inactive”. GYWGTLSERPYTELIAGTSI: the amyloid nucleation score entry was “inactive”.

In the case of HCAMCWGILEFEISMFAMEW, the amyloid nucleation score entry was “inactive”. In the case of HCFFDFAYLTRCSSLRSKRC, the amyloid nucleation score result is “inactive”. The same measure for HCFVANGFLD: “inactive”; for HCGWMAFFISLAPQFVYVLI: “inactive”; for HCKRYNVERKNFCDLHNQRY: “inactive”. On to HCVRVASWGT, for which the amyloid nucleation score entry was “inactive”. The same measure for HDLAGQFISV: “inactive”. Then HDNRDDRIVFFARLDHSRRS, with 0.626 ± 0.34.

HDRDHDMINSFIAFRQYWPW had an amyloid nucleation score of 0.339 ± 0.34.

HEGCSMSGRIPLLSRYMGYG: the amyloid nucleation score result was “inactive”. As to HFFMLGLYTSACHLESNYDC, the amyloid nucleation score was 0.758 ± 0.1. With HFIASRGSGNLKVAFTDSQT, the amyloid nucleation score came to 1.23 ± 0.1. Then HFITCELGFGDKGSIFFIAG, with “inactive”; and HFLHYRPTGNHRLFWIRKDY, with “inactive”; and HFQIIC, with “inactive”. Then HFSYKSKCVGGRFLNDIDVY, with “inactive”. The same measure for HFVKVE: “inactive”; for HGIRYTCWRWECSNVGGSSS: “inactive”; for HGSYLMRILR: “inactive”. The substance HGTAGLPK came in with an amyloid nucleation score of 0.807 ± 0.14. The same measure for HGVPSLLICWRVLNRSIFMV: “inactive”; for HHYLTHNRLVIKHHYRKYYD: “inactive”. Regarding HIMSEGHSLAMGCTCSNNYP, the amyloid nucleation score result is “inactive”. Then HIVKIRSG, with “inactive”.

Take HIVPAVCT: the amyloid nucleation score entry is “inactive”.

With HKASKLVYLQWCRHECWSLV, the amyloid nucleation score entry was “inactive”. As to HKGAQPVKVKSGQSDTRPPS, the amyloid nucleation score entry was “inactive”. Then HKLAKTNRSSIIVCGNRVLL, with 0.916 ± 0.11.

For HKLVFEHRLLVGPRNVDIFL, the amyloid nucleation score result is “inactive”. For HKRLGPLHYRLICG, the amyloid nucleation score result was “inactive”. Then HKYKQIWMFPEGPV, with “inactive”; and HLAMWFNHLSLDCL, with “inactive”; and HLGKPKEFMTIAGGLHCLML, with “inactive”.

As for HLGYTVYSRTMRSSFVFRVL, the amyloid nucleation score result is “inactive”. For the substance HLNTSLETLKVLMVTQPTGN, the amyloid nucleation score entry is “inactive”. The same measure for HLRVRCLSF: “inactive”; for HLVRIASIRLNCDPLYRSVV: “inactive”; for HLWCKPRLWKSLFVPYD: “inactive”. The same measure for HLWHSVWYALRDSPSLGFFI: “inactive”. On to HLWVNRDQWLVVLTEFSRFW, for which the amyloid nucleation score entry is “inactive”. For HLYHENSVFQLCVCTFVYSS, the amyloid nucleation score was determined as 2.91 ± 0.069.

Take HLYYAP: the amyloid nucleation score entry was “inactive”.

Regarding HMIKVIVLCMMRFFIKSKNS, the amyloid nucleation score entry is “inactive”. As to HMLLVD, the amyloid nucleation score entry is “inactive”. Then HMSQYGRLCKMATLTFT, with “inactive”; and HNEHILSQ, with “inactive”; and HNETKLCSHMLGVMGKNCGE, with “inactive”. The substance HNLNIHYMISRVNAYTCTFI had an amyloid nucleation score of 2.5 ± 0.074. Then HNLNLDGLMSKSSFTPMVLL, with “inactive”; and HNLTNLVSILGNAS, with “inactive”; and HNWNRFTQSILWGTYNFFVG, with 2.26 ± 0.085.

Consider HPYSNVWMSL, for which the amyloid nucleation score result was “inactive”. The same measure for HQIQLVATHPTEILHAGTSN: “inactive”; for HQKKMRFALR: “inactive”; for HRCDAWYYRS: “inactive”. Then HRINWRIHTTYISTYWKKCM, with “inactive”. The same measure for HRIVHDSVLKRVFDYFR: “inactive”; for HRIVTPPNDLWGVWASTV: “inactive”; for HRKSGMVIYFTVPWFMKRNC: “inactive”.

Regarding HSAYVVKWSSRTTPKFFSLW, the amyloid nucleation score result was “inactive”. The same measure for HSCFCQCVSARYCDYSSVTR: “inactive”; for HSDKCDCSAVDDLLRRVVL: “inactive”; for HSIHSDNRVLWLFDWSLSSR: “inactive”. Then HSLDRKYSWRI, with “inactive”. Then HSLTENAKREIT, with “inactive”; and HSLVVNSSSERRYG, with “inactive”; and HSMALITSSRVLVRVLTIMR, with “inactive”. On to HSNECFLGDSSNWWVYWAVR, for which the amyloid nucleation score result is “inactive”.

Turning to HSSLNGRNG, the amyloid nucleation score entry was “inactive”. The same measure for HSSVDIQRFCIFYINQCVPK: 2.45 ± 0.072; for HSWNKCDVYAWGLCTFISWC: 0.987 ± 0.096; for HTCVD: “inactive”. Then HTIRL, with “inactive”.

For HTLRWE, the amyloid nucleation score entry was “inactive”.

Turning to HTSPWVELPVGISRTCDEDR, the amyloid nucleation score entry is “inactive”. Then HTTALIGANDSA, with 0.024 ± 0.46.
